Results taken from patent publication US8173604B2, “Inhibition of Skp2-cyclin a interaction” (Albert Einstein College of Medicine of Yeshiva University, priority 2006, dated 2012).

Tests used:
E2F1-cyclin A binding = target: T1, E2F1-cyclin A binding (Homo sapiens, UniProt P20248); test: GST pull-down, competition for E2F1-cyclin A binding
T1 construct: expressed in transfected cells; host or cells: 293T (cyclin A/Cdk2); The GST-E2F1 plasmid was a gift and the fusion was purified on GSH beads
Description: (§1) GST pull down, p27 ubiquitylation assay, and cyclin A kinase assay. GST fusion proteins were purified on GSH-beads (Amersham), which were then incubated with transfected cell extracts for 1 hour in 4° C. with rocking. The beads were washed three times with lysis buffer (25 mM Hepes pH 7.6, 100 mM KCl, 0.1 mM EDTA, 10 mM MgCl2, 0.1% NP-40, 10% glycerol, 1 mM DTT) before analysis by SDS-PAGE and Western blotting.
Whether Skp2 competes with another RxL protein, E2F1, for cyclin A binding (Krek et al., 1994) was next determined.

cyclin A/Cdk2 = target: T2, cyclin A/Cdk2 (Homo sapiens, UniProt P20248+P24941); test: In vitro cyclin A/Cdk2 kinase assay with purified proteins (GST-Rb-C substrate); type: biochemical; conditions: 80 nM protein added to p27-containing kinase reaction
T2 construct: made in house; host or cells: insect cells (baculovirus)
Description: Cyclin A/Cdk2 kinase assays were performed as described previously (Ji et al., 2004). Both immuno-purified myc-cyclin A/Cdk2 on beads and GST-purified and eluted GST-cyclin A/Cdk2 (baculovirus vectors for GST-cyclin A and Cdk2 were provided by Brian Dynlacht) were used. The amounts of purified proteins were determined by comparing them with known amounts of standard proteins in Coomassie blue stained gels. Phosphorylation of GST-Rb-C was quantified with the ImageQuant software. The Ki of various proteins was determined by non-linear least squares analysis. […] Actual amounts of proteins in 7.5×10^4 HeLa cells were then determined (for example, the amounts of p27, Skp2, and cyclin A in 7.5×10^4 HeLa cells were determined to be about 0.1, 0.2, and 0.1 pmoles, respectively, at 14 hours post-replating; and about 0.01, 0.1, and 1.0 pmoles, respectively, at 19 hours post-replating).
For kinase reactions, insect cell-produced and purified GST-cyclin A/Cdk2 was used at a concentration of ˜3 nM, which was the lowest concentration that yielded readily detectible phosphorylation of GST-Rb-C here. […] Phosphorylation of Rb-C was measured and plotted, and the Ki of these various proteins were determined by non-linear least squares analysis (FIG. 7F). […]
It was then determined whether the 4060 peptide could prevent Skp2N from protecting cyclin A/Cdk2 from inhibition by p27. […]

p27-cyclin A interaction = target: T3, p27-cyclin A interaction (Homo sapiens, UniProt P20248); test: GST pull-down, blocking of p27-cyclin A interaction; type: binding; conditions: GST-p27, myc-cyclin A/Cdk2 transfected 293T cell extracts
T3 construct: expressed in transfected cells; host or cells: 293T (cyclin A/Cdk2)
Description: as §1
Skp2-cyclin A interaction and p27-cyclin A interaction can be blocked by distinct peptides. An important aspect of the RxL-1-IP interaction is that it can be blocked by a short RxL peptide (Adams et al., 1996). If the Skp2-cyclin A/Cdk2 interaction and the p27-cyclin A/Cdk2 interaction are mediated by different sequences on both sides of the interaction, as shown above, it can be predicted that the RxL peptide should not block Skp2-cyclin A interaction. […] Peptide concentrations required for their respective blocking activities were similar for RxL and 4060 peptides.
Skp2 competes with p27/p21, but not E2F1, for binding to cyclin A. Whether the apparently distinct Skp2-cyclin A interaction and p27-cyclin A interaction are competitive against each other was next evaluated. […] Whether the competition between Skp2 and p27/p21 for cyclin A binding could be observed in vivo with endogenous proteins under physiological conditions was next determined. […]

[1] = target: T4, GST-p21 binding to cyclin A/Cdk2 (Homo sapiens, UniProt P20248); test: GST pull-down, competition with GST-p21 for binding to cyclin A/Cdk2; conditions: increasing amounts of Skp2N
T4 construct: expressed in transfected cells; host or cells: 293T (cyclin A/Cdk2); The GST-p21 plasmid was a gift and the fusion was purified on GSH beads
Description: as §1
Skp2 competes with p27/p21, but not E2F1, for binding to cyclin A. Whether the apparently distinct Skp2-cyclin A interaction and p27-cyclin A interaction are competitive against each other was next evaluated. […] Skp2N also competed with GST-p21 for binding to cyclin A/Cdk2 (FIG. 6A right). Whether the competition between Skp2 and p27/p21 for cyclin A binding could be observed in vivo with endogenous proteins under physiological conditions was next determined. Since abundant amounts of cyclin A are already bound by Skp2 and very little is bound by p27 or p21 in various cell lines (unpublished results), this issue was addressed from the other direction of competition by testing whether p27/p21 could compete Skp2 away from cyclin A. For this purpose, we treated U2OS cells with actinomycin D to activate p53, which led to a significant increase in p21 protein levels.

Effect on E2F1-cyclin A binding (E2F1-cyclin A binding): did not affect | Protection of cyclin A/Cdk2 from inhibition by p27 (cyclin A/Cdk2): completely reversed | Blocking of p27-cyclin A interaction (p27-cyclin A interaction): progressively diminished | Competition with GST-p21 for binding to cyclin A/Cdk2 [1]: competed
B1: Skp2N: Skp2 N-terminus (N terminal 100 residues), GST cleaved (protein)
chain: MHVFKTPGPADAMHRKHLQEIPDLSSNVATSFTWGWDSSKTSELLSGMGVSALEKEEPDSENIPQELLSNLGHPESPPRKRLKSKGSDKDFVIVRRPKLN
modifications: left off: a dimerising Fc or GST
notes: Skp2 N-terminus (N terminal 100 residues), GST cleaved
